Assay in all cases: flow cytometry
Experiment [1] addresses T1, human SPNS2 D128A mutant (human, UniProt Q8IVW8 1-549).
T1 sequence: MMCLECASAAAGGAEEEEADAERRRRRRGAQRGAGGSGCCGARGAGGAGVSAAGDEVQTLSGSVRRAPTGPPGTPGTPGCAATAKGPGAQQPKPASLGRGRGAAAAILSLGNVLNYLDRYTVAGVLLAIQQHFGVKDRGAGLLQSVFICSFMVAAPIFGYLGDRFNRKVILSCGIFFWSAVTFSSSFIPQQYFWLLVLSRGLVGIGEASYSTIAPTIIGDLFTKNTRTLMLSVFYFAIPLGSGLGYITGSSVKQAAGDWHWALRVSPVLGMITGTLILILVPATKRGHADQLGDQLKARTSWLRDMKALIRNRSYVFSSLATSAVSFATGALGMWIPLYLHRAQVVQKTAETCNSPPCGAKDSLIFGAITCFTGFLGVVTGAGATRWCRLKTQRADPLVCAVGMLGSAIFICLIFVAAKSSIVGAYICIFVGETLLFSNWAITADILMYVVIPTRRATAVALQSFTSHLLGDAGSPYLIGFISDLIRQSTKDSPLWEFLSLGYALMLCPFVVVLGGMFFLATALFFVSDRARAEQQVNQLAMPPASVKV

In experiment [2] the target is T2, human SPNS2 G134A mutant (human, UniProt Q8IVW8 1-549).
T2 sequence: T1 sequence with A128D, G134A

Experiment [3] has as its target T3, human SPNS2 Q131A mutant (human, UniProt Q8IVW8 1-549).
T3 sequence: T1 sequence with A128D, Q131A

In experiment [4] the target is T4, human SPNS2 F133A mutant (human, UniProt Q8IVW8 1-549).
T4 sequence: T1 sequence with A128D, F133A

The target of experiment [5] is T5, human SPNS2 Q190A mutant (human, UniProt Q8IVW8 1-549).
T5 sequence: T1 sequence with A128D, Q190A

Residue numbers refer to the chain shown, from its start.

B1: 37-0511F (antibody, IgG2b, V domains shown)
VH: EVHLQQSGAALVRPRASVKLSCKVSGDSISRYYVHFVKQRPGQGLEWIGRIDPEDDTTKYSEKFKNRATLTADASSDTASLILSGLTSDDTATYFCSTLTGLDYWGQGVMVTVSS
VL: DIQMTQSPPVLSTSVGDRVTLRCKPSQNVHSKLDWYQQKHGEAPKLLIYYTHNLQTGIPSRFSGSGSGTDYTLTISSLQPEDVATYYCFQYYSGWTFGGGTKLEMKR
On to B1, for which, in experiment [1], the “binding ratio vs native type” value was below 0.5 ratio.

B2: 53-0707E (antibody, IgG2b, V domains shown)
VH: B1 VH with H3Q, A10E, A16T, S30T, N66K, R67K, D77N, S80Y, L83F, D89E
VL: B1 VL with P25A
With B2, the “binding ratio vs native type” value in experiment [1] was below 0.5 ratio.

B3: 64-0807A (antibody, IgG2b, V domains shown)
VH: EVQVVESGGGLVQPGRSMKLSCAALGFTFRDYYMAWVRQTPTKGLEWVAAISTGGGNTYYRDSVKGRFTISRDNAKSTLYLQMDSLRSDDTATYYCARNPYGNYFDYWGQGVMVTVSS
VL: QFVLSQPNSVSTNLGSTVKLSCKRSTGNIGSNYVHWYQRHEGRSPTTLIYRDDKRPNGVPDRFSGSIDRSSNSALLTINNVQTEDEADYFCQSYSGGMYLFGGGTKLTVL
As for B3, the “binding ratio vs native type” value in experiment [2] and in experiment [3] was below 0.5 ratio throughout.

B4: 93-1310F (antibody, IgG2b, V domains shown)
VH: EVQLVETGGGLVQPGSSLKLSCATSGFTFSDTWMSWVRQAPGKGLEWVALIKDKNSNYEANYAESVKGRFTISRDDSKRRVYLQMFTLRDQDTATYYCTSHEDFYYYSSYYFDYWGHGVMVTVSS
VL: DIVLTQSPATLSVTPGESVSLSCRASQGISTSIHWYQQKSNGSPRLLIKYASQSISGIPSRFSGSGSGTDFTLRINRVESEDFSVYYCQQTYSLPLTFGSGTRLEIKR
For the molecule B4, the “binding ratio vs native type” value in experiment [4] and in experiment [5] was below 0.5 ratio each time.

B5: 96-1403F (antibody, IgG2b, V domains shown)
VH: B4 VH with Q13R, Y58S, V66I, R79S, F86N, S100R, S109G, H117Q
VL: B4 VL with A9P, K39R, G42E, S56A, T72I, R74S, S100P, R103K, I106V
In the case of B5, the “binding ratio vs native type” value in experiment [4] and in experiment [5] was below 0.5 ratio throughout.

B6: 50-0704C (antibody, IgG2b, V domains shown)
VH: EVQLVGSGGGLVQPGRSMKLSCEASGFTFSNHYMAWVRQAPTKGLEWVATISTGGGNTYYRDSVKGRFTISRDNARSTLSLQMDSLRSEDTATYYCARQDYSNYMGGFAYWGQGTLVTVSS
VL: QFVLTQPNSVSTNLGSTVKLSCTRSIGNIGNNYVNWYKQYEGRSPTTMIYRDDERPDGVPDRFSGSIDRSSNSALLTINSVQTEDEADYFCQSFSSGIFIFGGGTKLTVL
As for B6, the “binding ratio vs native type” value in experiment [4] is below 0.5 ratio.

B7: 49-0703G (antibody, IgG2b, V domains shown)
VH: B6 VH with G6E, E23A, T50S, R76K, S80Y
VL: B6 VL with T23K, I26T, K38Q, S80N, S96N, I98M, G102A, K106Q
For B7, in experiment [4], the “binding ratio vs native type” value was below 0.5 ratio.

B8: 65-0810G (antibody, IgG2b, V domains shown)
VH: EVHLVESGGGLVQPGRSMKLSCTASGFTFNNYYMAWVRQAPTKGLEWVASISTGGGYTYYRDSVKGRFTISRDNTGNTLYLQMDSLRSEDTATYYCARCWELPYWGQGVMVTVSS
VL: QFVLTQPNSVSTNLGSTVKLSCRRSSGNIGNNYVNWYRQHEGRSPTTMIYRDDTRPDGVPNRFSGSIDRSSNSALLTINNVRPEDEAYYFCQSYSGSIYIFGGGTKLTVL
With B8, the “binding ratio vs native type” value in experiment [4] and in experiment [3] was below 0.5 ratio each time.
